In this test the target is T1, SNAP-25206 uncleaved substrate in PC12 cells (rat (PC12 cell line), UniProt P60881 1-206, limits assumed).
T1 construct: also called uncleaved SNAP-25206 substrate; uncleaved SNAP-25
The experiment in a line: immunocytochemistry of PC12 cells +/- GFP-BoNT/A-LC, ascites 1:10.

T1 sequence (P60881 whole entry): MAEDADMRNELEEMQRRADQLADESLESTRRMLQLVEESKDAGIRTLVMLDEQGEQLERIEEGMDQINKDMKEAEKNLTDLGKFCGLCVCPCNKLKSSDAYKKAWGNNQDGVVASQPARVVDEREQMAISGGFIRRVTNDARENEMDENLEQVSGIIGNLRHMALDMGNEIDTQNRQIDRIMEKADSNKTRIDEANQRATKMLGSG

B1: α-SNAP-25 monoclonal antibody 3C1A5 (antibody, V domains shown)
VH: VKLQESGAELVKPGASVKISCKASGYTFTDHSIHWVKQKPGQGLEWIGYLFPGNGNFEYNEKFKGKATLTADKSSSTVYMYLNSLTSEDSAVYFCKRMGYWGQGTTVTVSS
VL: DIKMTQSPSSMYASLGERVTITCKASQDIKSYLSWYQQKPWKSPKTLIYYATSLADGVPSRFSGSGSGQDYSLTISSLESDDTATYYCLQHGESPFTFGSGTKLEIKR
For B1, the binding result is “no binding”.

The values above are taken from patent US20120122128A1 (ALLERGAN, published 2012).
